The supplement of paper PMC10567573

B1: HDAC6 (parent)
chain: QEGLLDRCVSFQARFAEKEELMLV
B2: RIPK4 (parent)
chain: RERMELLEEAKKMEMAKFRYILPV

Variants of: B1
Experiment: protein stability index of a GFP-peptide fusion (GPS, HEK-293T) (PSI 1-6); higher = more stable
Conditions: c terminus: a fixed tail appended
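Also: lentivirally expressed fusions sorted by FACS into six bins by GFP to DsRed ratio, PSI derived from sequencing read proportions per bin multiplied by bin number.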

Row | Variant | protein stability index
1 | M22W | 1.95
2 | M22A | 2.93
3 | M22I | 1.92
4 | M22S | 3.43
5 | M22D | 4.03
6 | M22L | 2.03
7 | M22G | 3.27
8 | M22K | 3.31
9 | M22Q | 2.81
10 | M22H | 2.59
11 | M22C | 3.01
12 | M22P | 3.99
13 | M22E | 4.27
14 | M22R | 3.14
15 | M22V | 1.92
16 | M22F | 1.88
17 | M22Y | 2.03
18 | M22N | 3.84
19 | M22T | 3.2
20 | E19F | 1.98
21 | E19Y | 1.53
22 | E19M | 1.58
23 | E19T | 2.87
24 | E19I | 2

Row | Variant | protein stability index
25 | E19L | 1.49
26 | E19P | 2.18
27 | E19R | 1.84
28 | E19V | 1.49
29 | E19H | 2.14
30 | E19G | 2.6
31 | E19S | 2.14
32 | E19A | 1.76
33 | E19K | 1.9
34 | E19N | 1.6
35 | E19D | 1.76
36 | E19W | 2.08
37 | E19Q | 1.67
38 | E19C | 1.63
39 | Q12M | 2.02
40 | Q12A | 1.66
41 | Q12L | 1.52
42 | Q12S | 1.6
43 | Q12T | 1.99
44 | Q12H | 2.81
45 | Q12V | 1.14
46 | Q12N | 2.65
47 | Q12P | 2.47
48 | Q12E | 1.83

Row | Variant | protein stability index
49 | Q12F | 1.69
50 | Q12W | 1.08
51 | Q12I | 2.57
52 | Q12G | 2.77
53 | Q12D | 1.87
54 | Q12K | 2
55 | Q12R | 1.58
56 | Q12C | 2.1
57 | K18T | 2.66
58 | K18N | 1.77
59 | K18V | 1.96
60 | K18H | 1.44
61 | K18I | 2.6
62 | K18R | 1.45
63 | K18Q | 2.17
64 | K18P | 2.07
65 | K18S | 1.75
66 | K18A | 1.98
67 | K18G | 1.63
68 | K18C | 2.17
69 | K18D | 1.79
70 | K18M | 2.04
71 | K18W | 2.1
72 | K18L | 1.49

Row | Variant | protein stability index
73 | K18F | 2.51
74 | K18Y | 1.78
75 | K18E | 2.38
76 | F11H | 2.37
77 | F11I | 2
78 | F11M | 2.17
79 | F11V | 2.17
80 | F11T | 2.83
81 | F11S | 2.53
82 | F11P | 2.73
83 | F11K | 2.33
84 | F11R | 2.66
85 | F11N | 2.93
86 | F11Y | 2.03
87 | F11L | 1.71
88 | F11Q | 2.1
89 | F11W | 1.75
90 | A16L | 1.07
91 | A16S | 2.21
92 | A16C | 1.48
93 | A16R | 2.62
94 | A16T | 1.74
95 | A16E | 2.6
96 | A16H | 1.41

Row | Variant | protein stability index
97 | A16P | 2.11
98 | A16D | 1.84
99 | A16Y | 1.65
100 | A16F | 1.75
101 | A16N | 1.97
102 | A16K | 2.38
103 | A16V | 1.5
104 | A16W | 1.03
105 | A16M | 1.87
106 | A16Q | 1.93
107 | A16G | 1.62
108 | A16I | 2.31
109 | E20M | 1.37
110 | E20D | 2.32
111 | E20F | 2.98
112 | E20I | 1.18
113 | E20R | 1.69
114 | E20L | 1.62
115 | E20H | 2.52
116 | E20G | 1.74
117 | E20Q | 1.86
118 | E20T | 2.14
119 | E20S | 2.24
120 | E20K | 1.96

Row | Variant | protein stability index
121 | E20N | 1.84
122 | E20W | 2.02
123 | E20P | 2.01
124 | E20Y | 1.67
125 | E20A | 2.37
126 | E20V | 1.72
127 | E17A | 2.05
128 | E17H | 1.49
129 | E17F | 1.53
130 | E17N | 1.68
131 | E17W | 1.02
132 | E17T | 1.46
133 | E17Y | 1.67
134 | E17L | 1.85
135 | E17R | 2.03
136 | E17M | 1.4
137 | E17Q | 2.05
138 | E17G | 1.95
139 | E17S | 1.7
140 | E17K | 1.72
141 | E17V | 1.21
142 | E17I | 1.58
143 | E17C | 1.73
144 | E17P | 1.73

Row | Variant | protein stability index
145 | E17D | 2.14
146 | V24R | 3.31
147 | V24Y | 2.27
148 | V24F | 1.85
149 | V24H | 2.82
150 | V24D | 4.32
151 | V24W | 2.21
152 | V24M | 2.05
153 | V24C | 2.63
154 | V24K | 3.74
155 | V24T | 3.82
156 | V24E | 4.18
157 | V24A | 3.83
158 | V24P | 4.13
159 | V24G | 3.62
160 | V24I | 2.17
161 | V24Q | 3.76
162 | V24S | 3.59
163 | V24L | 2.21
164 | V24N | 3.42
165 | L21G | 3.76
166 | L21F | 1.98
167 | L21I | 1.59
168 | L21D | 4.3

Row | Variant | protein stability index
169 | L21Y | 2.17
170 | L21H | 2.45
171 | L21P | 3.29
172 | L21C | 2.18
173 | L21M | 2.14
174 | L21W | 2.03
175 | L21A | 4.12
176 | L21K | 3.17
177 | L21S | 4.16
178 | L21R | 3.06
179 | L21T | 2.73
180 | L21Q | 2.88
181 | L21V | 2.14
182 | L21E | 3.16
183 | L21N | 3.78
184 | A13K | 2.47
185 | A13I | 1.47
186 | A13P | 2.05
187 | A13S | 1.57
188 | A13T | 2.03
189 | A13V | 1.39
190 | A13L | 1.38
191 | A13G | 1.85
192 | A13Y | 1.76

Row | Variant | protein stability index
193 | A13C | 1.4
194 | A13D | 2.44
195 | A13Q | 2.08
196 | A13F | 2.2
197 | A13H | 2.59
198 | A13E | 1.31
199 | A13M | 1.89
200 | A13W | 2.2
201 | A13R | 1.93
202 | A13N | 1.89
203 | F15M | 2.16
204 | F15Y | 1.62
205 | F15L | 2.23
206 | F15I | 1.56
207 | F15S | 2.9
208 | F15C | 2.36
209 | F15G | 2.54
210 | F15W | 2.36
211 | F15T | 2.81
212 | F15E | 2.91
213 | F15N | 3.04
214 | F15Q | 2.55
215 | F15R | 2.58
216 | F15V | 2.49

Row | Variant | protein stability index
217 | F15D | 3.55
218 | F15A | 2.33
219 | F15K | 3.13
220 | F15P | 3.02
221 | F15H | 2.4
222 | R14E | 2.57
223 | R14S | 1.9
224 | R14D | 2.54
225 | R14A | 1.4
226 | R14F | 1.56
227 | R14K | 2.06
228 | R14P | 1.97
229 | R14L | 1.7
230 | R14H | 2.27
231 | R14I | 2.35
232 | R14C | 2.21
233 | R14G | 2.07
234 | R14T | 2.14
235 | R14Y | 2.24
236 | R14M | 1.66
237 | R14N | 2.41
238 | R14V | 1.38
239 | R14Q | 1.71
240 | L23S | 3.25

Row | Variant | protein stability index
241 | L23H | 2.57
242 | L23K | 3.55
243 | L23E | 3.49
244 | L23T | 2.98
245 | L23A | 3.4
246 | L23R | 3.35
247 | L23W | 1.89
248 | L23Q | 2.32
249 | L23Y | 2.14
250 | L23I | 1.85
251 | L23F | 1.96
252 | L23G | 3.93
253 | L23P | 3.45
254 | L23M | 1.83
255 | L23C | 2.59
256 | L23V | 1.93
257 | L23D | 4.37
258 | L23N | 3.82

Variants of: B2
Experiment: as above
Conditions: c terminus: a fixed tail appended

Row | Variant | protein stability index
259 | E14C | 3.63
260 | E14M | 2.89
261 | E14Y | 2.03
262 | E14Q | 3.12
263 | E14K | 2.21
264 | E14S | 2.86
265 | E9L | 1.94
266 | E9M | 2.78
267 | E9D | 3.91
268 | E9S | 3.08
269 | I21H | 2.94
270 | I21W | 2.05
271 | I21N | 3.85
272 | M13I | 3.59
273 | M4H | 3.21
274 | M4N | 3.94
275 | L7W | 2.43
276 | L7P | 4.01
277 | L7E | 3.74
278 | R1L | 4.16
279 | R1F | 3.47
280 | R1G | 3.79
281 | R1W | 2.5
282 | R1D | 4.22
283 | R1Y | 2.9
284 | L6K | 3.88

Row | Variant | protein stability index
285 | L6C | 3.05
286 | L6D | 4.56
287 | L6N | 3.66
288 | Y20W | 2.24
289 | Y20I | 1.93
290 | Y20E | 4.16
291 | Y20V | 2.59
292 | Y20M | 2.18
293 | A10P | 3.28
294 | L22N | 3.07
295 | P23I | 2.09
296 | F18K | 4.06
297 | F18I | 2.79
298 | F18G | 3.69
299 | E5V | 2.29
300 | E5C | 2.63
301 | E5K | 2.36
302 | R19N | 2.94
303 | R19F | 1.15
304 | R19P | 2.13
305 | R19G | 3.03
306 | R19Q | 3.65
307 | M15L | 3.48
308 | M15S | 4.59
309 | M15I | 4.15
310 | M15E | 4.61

Row | Variant | protein stability index
311 | K11A | 3.07
312 | K11Q | 3.17
313 | K11H | 3.05
314 | K11W | 2.51
315 | A16C | 2.54
316 | A16I | 3.02
317 | K12C | 3.35
318 | K12H | 3.36
319 | K12A | 3.43
320 | E2Q | 2.31
321 | E2S | 2.77
322 | E2F | 2.27
323 | E2M | 2.37
324 | E2N | 3.59
325 | E2R | 2.67
326 | V24T | 3.78
327 | E8D | 2.86
328 | E8F | 2.68
329 | K17P | 1.86
330 | K17W | 2.29
331 | K17T | 3.1
332 | K17A | 1.87
333 | R3D | 3.63
334 | R3Q | 4.19
